Target: Oct1 DNA binding domain (Oct1-DBD) (human (from pBabe-hOct1), UniProt P14859 280-438)
Test: EMSA; EMSA: 0.6X buffer D (1X: 20 mM HEPES, 100 mM KCl, 1 mM DTT), 50 ng/ul poly-dI/dC, 1 ug/ul BSA, on ice 15 min, 6% native PAGE in 0.5X TBE; probe 50 nM (1 nM for)
Conditions: protein: recombinant; tags: His (pET28a); blunt

Sequence of Oct1 DNA binding domain (Oct1-DBD) (P14859 280-438): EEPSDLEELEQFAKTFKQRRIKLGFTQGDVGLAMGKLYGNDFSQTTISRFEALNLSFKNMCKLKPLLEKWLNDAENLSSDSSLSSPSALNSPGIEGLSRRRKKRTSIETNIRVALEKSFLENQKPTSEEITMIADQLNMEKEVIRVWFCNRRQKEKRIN

| Binder | binding result |
| --- | --- |
| RHS5_12-Cy5 (dsDNA) DNA 1: TCGAGAAGCGCTGATTAGCATCTGTCATTA DNA 2: TAATGACAGATGCTAATCAGCGCTTCTCGA | binds |
| RHS6-Cy5 (dsDNA) DNA 1: CACCATGCAAAGGATGTGCGCGGACTCCCTTCCATTTGCTGGCCTCTTATCTGATA DNA 2: TATCAGATAAGAGGCCAGCAAATGGAAGGGAGTCCGCGCACATCCTTTGCATGGTG | binds |

Source: article PMC12069319, “Transcriptional co-regulator OCA-B/Pou2af1 restricts Th2 differentiation”
